According to patent WO2013091903A1 (dated 2013):

T1: Peptide 1415 (entire second extracellular loop of human ORAI1) (human)
T1 peptide: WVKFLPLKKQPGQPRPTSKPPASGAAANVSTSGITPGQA

T2: Peptide 1455 (part of the second extracellular loop of human ORAI1) (human)
T2 peptide: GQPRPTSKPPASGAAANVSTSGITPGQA

T3: Peptide 1454 (part of the second extracellular loop of human ORAI1) (human)
T3 peptide: PASGAAANVSTSGITPGQA


Assays:
[1] = target: human ORAI1 (CRAC channel membrane protein 1) (human, UniProt Q96D31 1-301); experiment: cell-based or functional assay
Sequence of human ORAI1 (CRAC channel membrane protein 1) (Q96D31 whole entry, form in doubt): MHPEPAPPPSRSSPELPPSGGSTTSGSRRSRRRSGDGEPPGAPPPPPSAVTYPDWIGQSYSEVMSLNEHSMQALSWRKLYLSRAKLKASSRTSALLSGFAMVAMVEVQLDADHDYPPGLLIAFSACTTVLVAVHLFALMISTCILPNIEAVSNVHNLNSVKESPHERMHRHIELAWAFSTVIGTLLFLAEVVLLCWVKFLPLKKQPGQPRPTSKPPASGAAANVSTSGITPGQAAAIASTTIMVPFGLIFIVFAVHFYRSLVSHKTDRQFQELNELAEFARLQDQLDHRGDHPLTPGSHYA

[2] = target: T1, Peptide 1415 (entire second …); experiment: direct peptide ELISA, peptide coated at 1 ug/ml; (+) indicates binding was detected
[3] = target: T2, Peptide 1455 (part of the second …); experiment: as above
[4] = target: T3, Peptide 1454 (part of the second …); experiment: direct peptide ELISA, peptide coated at 1 ug/ml; (-) indicates binding could not be detected

Binder	IC50 of inhibition of PBMC (T cell) proliferation, anti-CD3/CD28 stimulation [1]	binding result [2]	binding result [3]	binding result [4]
anti-M-CRAC1415-10F8 A2B6C1 (antibody, IgG1, V domains shown) VH: QVQLQQSGAELVRPGSSVKISCKASGYAFRSYWMNWVKQRPGQGLEWIGHIYPGDGDTNYNGKFKGKATLTADKSSSTAYMQLSSLTSEDSAVYLCGRGGTTVVVDYWGQGTTLTVSS VL: DIVMSQSPSSLAVSAGEKVTMSCKSSQSLLNSRTRKNYLAWYQQKPGQSPKLLIYWASTRESGVPDRFTGSGSGTDFTLTISSVQAEDLAVYYCKQSYNLPWTFGGGTKLEIKR	1 µg/mL	–	–	–
M-hCRAC1415-15F3A6 (antibody, IgG1, V domains shown, same variable domains as 17F6A2) VH: QVQLQQSGAELVRPGSSVKISCKASGYAFSSYWMNWVKQRPGQGLEWIGHIYPGDADTNYNGKFKGKATLTADKSSSTAYMHLSSLTSEDSAVYFCSRQLGFRYAMDYWGQGTSVTVSS VL: DIVMSQSPSSLAVSAGEKVTMSCKSSQSLLNSRTRKNYLAWYQQKPGQSPKLLIYWASTRESGVPDRFTGSGSGTDFTLTISSVQAEDLAVYYCKQSYNLRTFGGGTKLEIKR	–	binds	binds	no binding
M-hCRAC1415-17F6A2 (antibody, mouse IgG1, V domains shown, Mouse monoclonal, kappa light chain; also called Anti-M-CRAC1415-17F6A2) VH: QVQLQQSGAELVRPGSSVKISCKASGYAFSSYWMNWVKQRPGQGLEWIGHIYPGDADTNYNGKFKGKATLTADKSSSTAYMHLSSLTSEDSAVYFCSRQLGFRYAMDYWGQGTSVTVSS VL: DIVMSQSPSSLAVSAGEKVTMSCKSSQSLLNSRTRKNYLAWYQQKPGQSPKLLIYWASTRESGVPDRFTGSGSGTDFTLTISSVQAEDLAVYYCKQSYNLRTFGGGTKLEIKR	–	binds	binds	no binding

Results, then the binder that gave them:

IC50 of inhibition of PBMC (T cell) proliferation, anti-CD3/CD28 stimulation [1]	binding result [2]	binding result [3]	binding result [4]	Binder
–	binds	binds	no binding	M-hCRAC1415-17F1A4B6 (antibody, IgG1, V domains shown, same variable domains as 17F6A2) VH: QVQLQQSGAELVRPGSSVKISCKASGYAFSSYWMNWVKQRPGQGLEWIGHIYPGDADTNYNGKFKGKATLTADKSSSTAYMHLSSLTSEDSAVYFCSRQLGFRYAMDYWGQGTSVTVSS VL: DIVMSQSPSSLAVSAGEKVTMSCKSSQSLLNSRTRKNYLAWYQQKPGQSPKLLIYWASTRESGVPDRFTGSGSGTDFTLTISSVQAEDLAVYYCKQSYNLRTFGGGTKLEIKR
–	binds	binds	no binding	M-hCRAC1415-15F45A1 (antibody, IgG1, V domains shown, same variable domains as 17F6A2) VH: QVQLQQSGAELVRPGSSVKISCKASGYAFSSYWMNWVKQRPGQGLEWIGHIYPGDADTNYNGKFKGKATLTADKSSSTAYMHLSSLTSEDSAVYFCSRQLGFRYAMDYWGQGTSVTVSS VL: DIVMSQSPSSLAVSAGEKVTMSCKSSQSLLNSRTRKNYLAWYQQKPGQSPKLLIYWASTRESGVPDRFTGSGSGTDFTLTISSVQAEDLAVYYCKQSYNLRTFGGGTKLEIKR
–	binds	binds	no binding	M-hCRAC1415-14F74A1 (antibody, mouse IgG1, V domains shown, Mouse monoclonal, kappa light chain; also called Anti-M-CRAC1415-14F74A1) VH: QVQLQQSGAELVRPGSSVKISCKASGYAFSSYWMNWVKQRPGQGLEWIGHIYPGDGDTNYNGKFKGKATLTADKSSSTAYMQLSGLTSEDSAVYFCARSGRLRFAMDYWGQGTSVTVSS VL: DIVMSQSPSSLAVSAGEKVTMSCKSSQSLLNSRTRKNYLAWYQQKPGQSPKLLIYWASTRESGVPDRFTGSGSGTDFTLTISSVQAEDLAVYYCKQSYNLRTFGGGTKLEIQR
